This note sets out measurements from patent publication US20090220587A1.

In test [1] the target is endothelin receptors on rat peritoneal mast cells (RBL) (rat). The test can be described thus: cell-based or functional assay.
Test [2] deals with endothelin receptors on A549 human lung epithelial carcinoma cells (human). In words: cell-based or functional assay.

* marks the point of attachment. X1 = 1,2‑dioleoyl‑sn‑glycero‑3‑succinate, CCCCCCCC/C=C\CCCCCCCC(=O)OC[C@H](COC(=O)CCC(=O)*)OC(=O)CCCCCCC/C=C\CCCCCCCC

B1: liposome complex comprising the conjugated endothelin peptide ligand 1,2-dioleoyl-sn-glycero-3-succinate-Cys-His-Leu-Asp-Ile-Ile-Trp-COOH (peptide)
peptide: X1-CHLDIIW-OH
modifications: not fully specified; printed as 1,2-dioleoyl-sn-glycero-3-succinate-Cys-His-Leu-Asp-Ile-Ile-Trp-COOH; also: lipid conjugate incorporated in liposomes
Consider B1, for which the reduction of endothelin receptors after pre-exposure to unlabeled liposomes in test [1] and in test [2] was 50% throughout. For the same molecule, the recovery of endothelin receptors after internalization in test [2] was determined as 100%.
